We go through 7 substances from paper PMC11364227.

The target of the test is SARS-CoV-2 prototype-Beta RBD-dimer PB (two truncated RBDs, 329-537, in tandem) (SARS-CoV-2 (prototype) | SARS-CoV-2 (Beta variant)) (UniProt P0DTC2). As to the kind of experiment: SPR.
As to C022, the Kd came out at 5.1 nM.

The substance CR3022 displayed a dissociation constant Kd of 293 nM. Compared with the last substance, the Kd is about 57-fold higher.

On to S2H97, for which the Kd was 1.6 nM. This Kd is about 180-fold lower than that of the substance before.

As for S2K146, the Kd was determined as 4 nM.

As for S309, the Kd was found to be 7.6 nM. This Kd lies about 1.9-fold higher than the previous one.

Consider SA55, for which the Kd was determined as 6.6 nM.

Take XGv347: the Kd was determined as 0.2 nM.
